Measurements from PMC8433370, “Low sample volume origami-paper-based graphene-modified aptasensors for label-free electrochemical detection of cancer biomarker-EGFR”.

Biological target: EGFR antigen (epidermal growth factor receptor) (UniProt P00533 25-645)
Assay: electrochemical aptasensor (CV/DPV); aptamer on NH2-GO/THI/AuNP paper electrode; linear range 0.05-200 ng/mL, LOD 5 pg/mL (not a Kd); Aptamer on NH2-GO/THI/AuNP electrode, mercaptoethanol block, wash in TE (10 mM Tris-HCl, 1 mM EDTA; TE stock pH 8.0); binding buffer and temperature not given in the material
Settings: protein: commercial

B1: anti-EGFR aptamer (ssDNA)
DNA: TACCAGTGCGATGCTCAGTGCCGTTTCTTCTCTTTCGCTTTTTTTGCTTTTGAGCATGCTGACGCATTCGGTTGAC
modifications: 5'-thiol
  binding result: binds
